Earlier results on 1 substance are cited in publication PMC2375062.

The pKd is −log10 of the Kd, conventionally taken in molar units.

pKd: −log10 of the molar value.

This data set deals with uPA (Homo sapiens) (UniProt P00749).

Regarding glu-plasminogen (from UniProt P00747), the pKd is 7.30.
